The test system of data set [1] is G30 GCs (patient-derived glioma cells). As to the kind of experiment: CellTiter-Glo luminescent cell viability assay, G30 GCs. The note with it: same experiment as G9 (80 hours, CellTiter-Glo), read-out: IC50 (potency) on G30 GCs. Format: cell-based, human. On the procedure: The cytotoxicity of the PtIV-M13 conjugate was evaluated against patient-derived glioma cells (GCs). To evaluate the in vitro efficacy of the conjugate, G9 neurospheres were treated with PtIV-M13, prodrug 4, and cisplatin for 80 hours. After treatment, the potency of the compounds was assessed by the CellTiter-Glo luminescent cell viability assay (FIGS. 2A and 2B). The assay involves lysis of the cells and quantitation of the amount of ATP present, which is directly proportional to the number of living cells in culture. […] However, prodrug 4 was not potent, perhaps due to an inability to enter cells (FIG. 2A). As a result, in the follow-up in vitro experiment with another GC line, PtIV-L13 was used as a control instead as this should have similar properties to the PtIV-M13, only without the perfluoroaryl. The same experiment was repeated on G30 GCs.
Background: In ATP-based viability assays light output follows the ATP content of the culture.

Data set [2] in a line: Pharmacokinetics in healthy mice: platinum in serum and brain by GFAAS. The settings on record: tail vein; for brain distribution of platinum over time / serum concentration of platinum over time: 100 μL of 100 μM (~2.5 mg/kg), 1, 2.5 and 5 hours. On the procedure:
Pharmacokinetic and biodistribution studies were performed in healthy mice. For pharmacokinetics, 100 μL of a 100 μM solution of PtIV-M13 or PtIV-L13 dissolved in saline (corresponding to a dose of ˜2.5 mg/kg) were injected into the tail veins of mice. The brain and a blood sample were isolated at 1, 2.5, and 5 hours. A portion of the brain was dissolved in nitric acid and the amount of platinum in the brain and serum were quantified by GFAAS. […] The error bars are the standard deviation from three different animals injected with the compound. […] The error bars are the standard deviation from three different animals injected with the compound.

Data set [3] is described as follows: Biodistribution in mice: platinum in organs by GFAAS. The note with it: tail vein, 100 μL of 100 μM in saline, after five hours. On the procedure: To study the biodistribution, 100 μL of a 100 μM solution of PtIV-M13, PtIV-L13, or cisplatin dissolved in normal saline were injected into the tail vein of mice. After five hours, the mice were sacrificed and the brain, heart, lungs, kidney, spleen and liver were removed. The amount of platinum in each organ was measured by dissolving a portion of the respective organ in nitric acid and then quantifying the amount of platinum by GFAAS (supporting information).

In data set [4] the test system is G9 neurospheres (patient-derived glioma cells). The settings on record: for IC50: read-out: IC50 against the G9 cells, treated for 80 hours, CellTiter-Glo. On the procedure: The cytotoxicity of the PtIV-M13 conjugate was evaluated against patient-derived glioma cells (GCs). To evaluate the in vitro efficacy of the conjugate, G9 neurospheres were treated with PtIV-M13, prodrug 4, and cisplatin for 80 hours. After treatment, the potency of the compounds was assessed by the CellTiter-Glo luminescent cell viability assay (FIGS. 2A and 2B). The assay involves lysis of the cells and quantitation of the amount of ATP present, which is directly proportional to the number of living cells in culture. […] The same experiment was repeated on G30 GCs.

*1 amine or outer side, *2 acyl side, *3 side chain or, on linkers, in order; H or OH if unused. Where a SMILES comes first, the peptide text is derived from it. Bridges are numbered along the chain shown (N, C = ends). Perfluorobiphenyl(4,4') = Fc1c(F)c([*:1])c(F)c(F)c1-c1c(F)c(F)c([*:2])c(F)c1F; Suc = O=C(CCC(=O)[*:2])[*:1]

The term IC50 denotes the concentration at which inhibition is half-maximal. Regarding `CC[C@H](C)[C@H](NC(=O)[C@H](CCCCN)NC(=O)CNC(=O)[C@H](CC(C)C)NC(=O)[C@H](CC(C)C)NC(=O)[C@H](Cc1ccc(O)cc1)NC(=O)CNC(=O)[C@H](C)NC(=O)CCC(=O)O)C(=O)N[C@@H](CC(N)=O)C(=O)N[C@@H](CC(C)C)C(=O)N[C@@H](CCCCN)C(=O)N[C@@H](C)C(=O)N[C@@H](CO)C(=O)N[C@@H](C)C(=O)N[C@@H](C)C(=O)N[C@@H](CC(C)C)C(=O)N[C@@H](C)C(=O)N[C@@H](CCCCN)C(=O)N[C@@H](CCCCN)C(=O)N[C@@H](CO)C(=O)N[C@@H](CC(C)C)C(N)=O` [PtIV-L13] (Suc-AGYLLGKINLKASAALAKKSL-NH2), in data set [1], the IC50 was determined as 28.8 µM. Moreover, in data set [2], the “brain distribution of platinum over time” value is recorded as “increased over time” and the “serum concentration of platinum over time” value is given as “decreased over time”.

Take `CC[C@H](C)[C@H](NC(=O)[C@H](CCCCN)NC(=O)CNC(=O)[C@H](CC(C)C)NC(=O)[C@H](CC(C)C)NC(=O)[C@H](Cc1ccc(O)cc1)NC(=O)CNC(=O)[C@H](C)NC(=O)CCC(=O)O)C(=O)N[C@@H](CC(N)=O)C(=O)N[C@@H](CC(C)C)C(=O)N[C@@H](CCCCN)C(=O)N[C@@H](C)C(=O)N[C@H]1CSc2c(F)c(F)c(c(F)c2F)-c2c(F)c(F)c(c(F)c2F)SC[C@@H](C(=O)N[C@@H](CC(C)C)C(N)=O)NC(=O)[C@H](CCCCN)NC(=O)[C@H](CCCCN)NC(=O)[C@H](C)NC(=O)[C@H](CC(C)C)NC(=O)[C@H](C)NC(=O)[C@H](C)NC1=O` [PtIV-M13] (Suc-AGYLLGKINLKACAALAKKCL-NH2; linker 13-20 via Perfluorobiphenyl(4,4')): the “increase in the amount of platinum in the brain compared with cisplatin” value in data set [3] is given as 15 fold. The half-inhibitory concentration (IC50) amounted to 4.51 ± 0.22 µM in data set [4] and 4.04 µM in data set [1]. Also, in data set [2], the “brain distribution of platinum over time” value was “increased over time”. In addition, the “serum concentration of platinum over time” value in data set [2] was “decreased over time”. Also, the “brain uptake versus linear control PtIV-L13” value in data set [2] (~2.5 mg/kg, brain platinum read-out) is given as “more brain uptake”. Further, the “stability in serum versus linear control PtIV-L13” value in data set [2] (~2.5 mg/kg, serum platinum read-out) is given as “more stable in serum”.

`N.N.[Cl][Pt][Cl]` [cisplatin, reference compound]: in data set [4], the IC50 worked out at 4.34 ± 0.66 µM.

For the compound `CCCCNC(=O)[O][Pt]([NH2])([NH2])([Cl])([Cl])[O]C(=O)CCC(=O)O` [prodrug 4], in data set [4] (treated for 80 hours, CellTiter-Glo), the “IC50 against the G9 cells” value is reported as “not potent”.

Values taken from US20210023129A1, “PLATINUM PRODRUG PERFLUOROARYL PEPTIDE CONJUGATES” (MASSACHUSETTS INSTITUTE OF TECHNOLOGY, priority 2019, published 2021).
